T1: human GPVI on platelets (human, UniProt Q9HCN6 21-339)
T1 sequence (looked up): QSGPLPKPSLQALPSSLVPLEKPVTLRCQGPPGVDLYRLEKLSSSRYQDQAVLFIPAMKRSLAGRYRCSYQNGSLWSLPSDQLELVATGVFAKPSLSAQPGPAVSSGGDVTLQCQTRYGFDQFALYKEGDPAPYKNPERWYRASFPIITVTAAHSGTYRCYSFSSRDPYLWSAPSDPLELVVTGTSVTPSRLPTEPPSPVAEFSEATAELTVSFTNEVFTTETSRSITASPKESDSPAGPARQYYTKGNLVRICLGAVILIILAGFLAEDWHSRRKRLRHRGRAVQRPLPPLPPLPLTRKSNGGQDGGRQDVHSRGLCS

T2: human GPVI protein, soluble extracellular domain (D1 and D2) (human, UniProt Q9HCN6 21-267)
T2 construct: extracellular domain; also called hGPVI; human glycoprotein VI
T2 sequence (looked up): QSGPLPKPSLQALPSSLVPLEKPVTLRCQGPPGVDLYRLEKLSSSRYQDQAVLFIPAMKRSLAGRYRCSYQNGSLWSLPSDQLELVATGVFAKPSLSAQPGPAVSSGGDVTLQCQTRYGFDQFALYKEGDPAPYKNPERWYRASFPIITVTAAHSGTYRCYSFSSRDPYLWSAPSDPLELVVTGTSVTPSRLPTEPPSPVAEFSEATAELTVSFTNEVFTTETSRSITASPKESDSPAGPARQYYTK

B1: humanized anti-GPVI Fab VL1/VH2 (Fab, V domains shown)
VH: QVQLQESGPGLVAPSQSLSITCTVSGFSLTGYGVNWVRQPPSRGLEWLGMIWGDGSTDYQSTLKSRLSISKDNSKSQVFLKMNSLTTDDTARYYCARDLPMDYWGQGTSVTVSS
VL: DIQMTQSPSSLSASVGGRVTITCKASQDINKYIAWYQHKPGKGPSLLIHYTSTLQPGVPSRFSGSGSGRDYSFSISNLQPEDIATYYCLQYANLLTFGGGTKLEIKR
notes: Recombinant Fab: VH fused to CH1 of human IGHG1 (Q569F4), HC ends in DKTHT; VL fused to human constant kappa (Q502W4); also called VL1 with VH2
B2: humanized anti-GPVI Fab VL1/VH1 (Fab, V domains shown)
VH: B1 VH with N73T
VL: B1 VL
notes: Recombinant Fab: VH fused to CH1 of human IGHG1 (Q569F4), HC ends in DKTHT; VL fused to human constant kappa (Q502W4); also called VL1 with VH1
B3: humanized anti-GPVI Fab VL3/VH4 (Fab, V domains shown)
VH: B1 VH with G31Y
VL: B1 VL with N93L
notes: Recombinant Fab: VH fused to CH1 of human IGHG1 (Q569F4), HC ends in DKTHT; also called VL3 with VH4
B4: humanized anti-GPVI Fab VL1/VH5 (Fab, V domains shown)
VH: B1 VH with Y103E
VL: B1 VL
notes: Recombinant Fab: VH fused to CH1 of human IGHG1 (Q569F4), HC ends in DKTHT; VL fused to human constant kappa (Q502W4); also called VL1 with VH5
B5: humanized anti-GPVI Fab VL2/VH2 (Fab, V domains shown)
VH: B1 VH
VL: B1 VL with N93H
notes: Recombinant Fab: VH fused to CH1 of human IGHG1 (Q569F4), HC ends in DKTHT; VL fused to human constant kappa (Q502W4); also called VL2 with VH2
B6: humanized anti-GPVI Fab VL1/VH4 (Fab, V domains shown)
VH: B1 VH with G31Y
VL: B1 VL
notes: Recombinant Fab: VH fused to CH1 of human IGHG1 (Q569F4), HC ends in DKTHT; VL fused to human constant kappa (Q502W4); also called VL1 with VH4
B7: humanized anti-GPVI Fab VL3/VH2 (Fab, V domains shown)
VH: B1 VH
VL: B1 VL with N93L
notes: Recombinant Fab: VH fused to CH1 of human IGHG1 (Q569F4), HC ends in DKTHT; VL fused to human constant kappa (Q502W4); also called VL3 with VH2
B8: humanized anti-GPVI Fab VL1/VH3 (Fab, V domains shown)
VH: B1 VH with Q1E, Q5L, Q16G, S42G, R43K, T86R, Q106L
VL: B1 VL
notes: Recombinant Fab: VH fused to CH1 of human IGHG1 (Q569F4), HC ends in DKTHT; VL fused to human constant kappa (Q502W4); also called VL1 with VH3
B9: Fab 390-G (recombinant glycosylated Fab of clone 390) (Fab, V domains shown)
VH: B1 VH with Q5K, S42G, R43K, Q60N, T86Q
VL: B1 VL with V15L, R18K, V58I, Q79E
modifications: additional N-glycosylation motif in VH kept
notes: Chimeric Fab from HEK293: VL fused to human constant kappa (IGKC, Q502W4), VH to CH1 of human IGHG1 (Q569F4)
B10: Fab 390-nG (recombinant non-glycosylated Fab of clone 390) (Fab, V domains shown)
VH: B1 VH with Q5K, S42G, R43K, T86Q
VL: B1 VL with V15L, R18K, V58I, Q79E
notes: Chimeric Fab from HEK293: VL fused to human constant kappa (IGKC, Q502W4); also called ANTI-GPVI Fab 390-nG construct

Here are results for 10 molecules from patent publication US20150098939A1 (Sanofi, published 2015).

Numbering of substitutions follows the chain as printed.

The first assay addresses T1, human GPVI on platelets. The assay is described as follows: cell-based or functional assay.
In the case of B1, the “IC50 for inhibition of collagen induced platelet aggregation (human PRP), Test 1” value (“IC50 for inhibition … Test 1” below) came out at 2.3 µg/mL; the “IC50 for inhibition of collagen induced platelet aggregation (human PRP), Test 2” value (shortened to “IC50 for inhibition … Test 2”) is 2 µg/mL; the “IC50 for inhibition of collagen induced platelet aggregation (human PRP), Test 3” value (“IC50 for inhibition … Test 3” for short) was 1.1 µg/mL.

Regarding B2, the “IC50 for inhibition … Test 1” value worked out at 1.5 µg/mL and the “IC50 for inhibition … Test 2” value is 2.3 µg/mL.

Regarding B3, the “IC50 for inhibition … Test 1” value was found to be 1 µg/mL; the “IC50 for inhibition … Test 2” value is 2.3 µg/mL; the “IC50 for inhibition … Test 3” value worked out at 2 µg/mL.

For the molecule B4, the “IC50 for inhibition … Test 1” value was found to be 1.9 µg/mL; the “IC50 for inhibition … Test 2” value was 2.3 µg/mL; the “IC50 for inhibition … Test 3” value is 1.2 µg/mL.

For B5, the “IC50 for inhibition … Test 1” value was found to be 1.4 µg/mL; the “IC50 for inhibition … Test 2” value was found to be 2.4 µg/mL; the “IC50 for inhibition … Test 3” value worked out at 2.3 µg/mL.

In the case of B6, the “IC50 for inhibition … Test 1” value worked out at 1.6 µg/mL; the “IC50 for inhibition … Test 2” value was 1.8 µg/mL; the “IC50 for inhibition … Test 3” value stood at 1.2 µg/mL.

B7: the “IC50 for inhibition … Test 1” value is 1.9 µg/mL; the “IC50 for inhibition … Test 2” value is 0.9 µg/mL; the “IC50 for inhibition … Test 3” value is 2.1 µg/mL.

As for B8, the “IC50 for inhibition … Test 1” value is 1.7 µg/mL; the “IC50 for inhibition … Test 2” value was determined as 1.5 µg/mL; the “IC50 for inhibition … Test 3” value came to 1.5 µg/mL.

In the next assay the target is T2, human GPVI protein, soluble …. The assay can be described thus: SPR (Biacore 3000), Fab immobilised, human GPVI analyte. On the procedure: Surface plasmon resonance technology on a Biacore 3000 (GE Healthcare) was used for detailed kinetic characterization of purified antibody fragments. A direct binding assay was used with the anti-GPVI Fab as the ligand and human GPVI as analyte. Typically, 500 RU of anti-GPVI Fab were immobilized on a research grade CM5 chip by amine reactive coupling, resulting in an Rmax of 200 RU for the bound GPVI molecule. Binding kinetics were measured over a concentration range typically between 0.8 to 208 nM in HBS-EP (10 mM HEPES pH 7.4, 150 mM NaCl, 3 mM EDTA, 0.005% Surfactant P20) at a flow rate of 30 μl/min. Chip surfaces were regenerated with 10 mM glycine pH 2.0. Kinetic parameters were analyzed and calculated in the BIAevaluation program package (version 4.1) using a flow cell without immobilized Fab as reference. A 1:1 binding model with mass transfer was applied for a global fit of the data for curves.
Molecule B9 displayed a Kd of 0.05 nM, a koff of 1.5e-05 s⁻¹ and a kon of 320000 M⁻¹ s⁻¹.

For the molecule B10, binding was characterised by a dissociation constant (Kd) of 0.06 nM, the koff worked out at 2.2e-05 s⁻¹ and the kon was found to be 348000 M⁻¹ s⁻¹.

Another assay shares this target. The assay can be described thus: SPR (Biacore 3000), human GPVI immobilised, Fab analyte. The method, then: Surface plasmon resonance technology on a Biacore 3000 (GE Healthcare) was used for detailed kinetic characterisation of purified antibody fragments. An assay with immobilised human GPVI was used. Typically, 300 RU of GPVI were immobilised on a research grade CM5 chip by amine reactive coupling, resulting in an Rmax of 200 RU for the bound antibody fragment. Binding kinetics were measured over a concentration range between 3.2 to 112 nM in HBS-EP (10 mM HEPES pH 7.4, 150 mM NaCl, 3 mM EDTA, 0.005% Surfactant P20) at a flow rate of 30 μl/min. Chip surfaces were regenerated with 10 mM glycine pH2.0. Kinetic parameters were analysed and calculated in the BIAevaluation program package (version 4.1) using a flow cell without immobilised GPVI as reference. A 1:1 binding model with mass transfer was applied for a global fit of the data for curves corresponding to analyte concentrations from 3-56 nM of Fab fragment.
Note that the Biacore assay used to measure the data in this example is different in terms of immobilized binding partner (GPVI versus the mAb/Fab fragment) and this leads to the different Biacore affinities as reported in Table 5.
The molecule B1 came in with a Kd of 0.2 nM, a koff of 3e-05 s⁻¹ and a kon of 113000 M⁻¹ s⁻¹.

B10 displayed a Kd of 0.2 nM, a koff of 2e-05 s⁻¹ and a kon of 102000 M⁻¹ s⁻¹.

In turn, B2 returned a Kd of 0.4 nM, a koff of 4e-05 s⁻¹ and a kon of 111000 M⁻¹ s⁻¹.

On to B3, for which the Kd stood at 0.3 nM, the koff was determined as 4e-05 s⁻¹ and the kon worked out at 151000 M⁻¹ s⁻¹.

For the molecule B4, binding was characterised by a dissociation constant (Kd) of 0.4 nM, the koff was 3e-05 s⁻¹ and the kon is 81000 M⁻¹ s⁻¹.

Molecule B5 displayed a dissociation constant Kd of 0.3 nM, a dissociation rate constant (koff) of 3e-05 s⁻¹ and a kon of 108000 M⁻¹ s⁻¹.

As to B6, the affinity, expressed as Kd, was 0.2 nM; the koff turned out to be 2e-05 s⁻¹; the kon worked out at 124000 M⁻¹ s⁻¹.

In turn, B7 showed a Kd of 0.2 nM, a koff of 3e-05 s⁻¹ and a kon of 132000 M⁻¹ s⁻¹.

The molecule B8 registered a Kd of 0.1 nM, a koff of 2e-05 s⁻¹ and a kon of 148000 M⁻¹ s⁻¹.

The next assay addresses T3, hGPVI-hFc fusion protein (human).
T3 construct: also called GPVI-Fc; human GPVI-Fc fusion protein
The assay can be described thus: DELFIA competition assay: Fab preincubated with GPVI-Fc (3 µg/ml), binding to collagen-coated plate, Test 1. The method, then:
(§1) Collagen coated 384 well plates (Pierce) were blocked with 3% BSA for 2 h. Increasing concentrations of anti GPVI Fab fragments (0.3-20 μg/ml) were incubated with recombinant GPVI (Fusion protein of the extracellular domain of GPVI and Fc-Part of human IgG; 3 μg/ml). The GPVI-Fab mixture was added to collagen coated plates and incubated for 1 h at RT. 384 well plates were washed (DELFIA wash buffer, Perkin Elmer) five times and Eu-labelled anti-human IgG (100 ng/ml Perkin Elmer) was added. Following 1 h incubation at room temperature plates were washed again five times, enhancement solution (Perkin Elmer) was added and incubated for 10 min. Fluorescence was detected at 360/612 nm using a Tecan Ultra reader. Shown in Table 15 are examples of the inhibitory effect of recombinantly produced anti-GPVI Fab fragments on GPVI collagen binding.
B1 gave an IC50 of 1.17 µg/mL.

B2 displayed an IC50 of 1.1 µg/mL.

In the case of B3, the IC50 turned out to be 0.72 µg/mL.

In the case of B4, the IC50 was 1.41 µg/mL.

In turn, B5 yielded a half-maximal inhibitory concentration (IC50) of 0.81 µg/mL.

In turn, B6 registered an IC50 of 1.01 µg/mL.

In the case of B7, the IC50 turned out to be 0.67 µg/mL.

Take B8: the IC50 is 0.63 µg/mL.

A further assay concerns the target T3, hGPVI-hFc fusion protein. The assay is described as follows: DELFIA competition assay: Fab preincubated with GPVI-Fc (3 µg/ml), binding to collagen-coated plate, Test 2. The method, then: as §1
B1 returned an IC50 of 0.82 µg/mL.

As to B2, the IC50 is 0.75 µg/mL.

Take B3: the IC50 stood at 0.72 µg/mL.

The molecule B4 displayed an IC50 of 1.58 µg/mL.

On to B5, for which the IC50 turned out to be 0.73 µg/mL.

B6 registered an IC50 of 1.14 µg/mL.

For the molecule B7, the IC50 is 0.9 µg/mL.

B8 displayed an IC50 of 1.24 µg/mL.

The next assay addresses T3, hGPVI-hFc fusion protein. The assay can be described thus: DELFIA competition assay: Fab preincubated with GPVI-Fc (3 µg/ml), binding to collagen-coated plate, Test 3. The method, then:
as §1
On to B2, for which the IC50 is 1 µg/mL.

Regarding B3, the half-maximal inhibitory concentration (IC50) was 1.02 µg/mL.

For the molecule B4, the IC50 worked out at 1.24 µg/mL.

B5 had an IC50 of 1.05 µg/mL.

Regarding B6, the IC50 is 1.06 µg/mL.

The molecule B7 gave an IC50 of 1.04 µg/mL.

Take B8: the IC50 was determined as 0.87 µg/mL.
